Measured values published in US10654918B2, “Inflammatory disease diagnosis and methods of treatment using down-regulators of lipopolysaccharide-responsive beige-like anchor” (University of South Florida, priority 2013, dated 2020).

Key:
A549 cells = assay: Western blot of A549 and A549 pLAsiGFP cells treated with LPS; assay type: cell-based, human; conditions: for TLR4 levels (Western blot): vs untransfected A549 cells
Method: (§1) FIGS. 4A-B are a blot and graph showing knockdown of LRBA increases the TNFα levels in A549 cells (adenocarcinomic human alveolar basal epithelial cells). A549 cells and A549 pLAsiGFP cells (stably transfected with shRNA plasmid against LRBA) were treated with LPS (1 μg/ml). The TNFα concentrations were detected by Western blot. Cells were cultured in 6-well plates and stimulated with LPS (1 μg/ml) for different time as shown, then lysed with RIPA buffer. Western blots were carried out. TNFα antibody (sc-1351. Santa Cruz Biotechnology, Santa Cruz, USA) was used at 1:500 ratio and incubated at 4° C. overnight. BioRad ChemiDoc XRS and Quantity One software were used to acquire gel image and measure band relative intensity. (A) Western blot. 1. A549 No LPS, 2. A549 LPS 30 min, 3. A549 LPS 1 hr, 4. A549 LPS 2 h, 5. A549 LPS 4 h, 6. A549 LPS 24 h, 7. A549 pLAsiGFP LPS 2 h, 8. A549 pLAsiGFP LPS 4 h, 9. A549 pLAsiGFP LPS 24 h. (B) Band intensity quantification from A.
as §1, with “FIG. 17(A)-(B)” for “FIGS. 4A-B”, “series of graphs” for “blot and graph”, “TLR4” for “TNFα”, “cells.” for “cells (adenocarcinomic human alveolar basal epithelial cells).”
FIGS. 31(A) and (B) are a blot and graph showing knockdown of LRBA decreases the total NFκB levels in A549 cells. A549 LIRII cells (stably transfected with pLRBA-VHS) and A549 pLAsiGFP cells (stably transfected with shRNA plasmid against LRBA) were treated with LPS (1 μg/ml). The NFκB concentrations were detected by Western blot. Cells were cultured in 6-well plates and stimulated with LPS (1 μg/ml) for different time as shown, then lysed with RIPA buffer. Western blots were carried out. NF-κB2 p100/p52 Antibody #4882 (Cell Signaling Technology, Danvers, Mass., USA) was used at 1:500 ratio and incubated at 4° C. overnight. BioRad ChemiDoc XRS and Quantity One software were used to acquire gel image and measure band relative intensity. A. Western blot. B. Band intensity quantification from A.

NFκB = NFκB luciferase activity in A549 clones with LRBA shRNA knockdown; assay type: cell-based, human; conditions: A549 clones with different knockdown levels, LPS 10 μg/ml; dose-dependent
From the text: FIG. 45A-D. Knockdown of LRBA deregulates NFκB. (A) Knockdown of LRBA increases NFκB luciferase activity. An NFκB luciferase reporter was used to measure the NFκB transcription activity. The data are shown as scatter with bar graph of mean with standard error of mean (SEM). (B) Knockdown of LRBA increases phospho-NFκB. The Phosflow kit including Cytofix Fixation Buffer, Phosflow Perm Buffer III and Stain Buffer (BD) and phospho-antibodies, NFκB p65 (pS529) PE-Cy7 were used for the intracellular staining following the company's instruction. For each samples, 50,000 cells were recorded for the FACS assay. (C) A549 cells were stably transfected with LRBA shRNA knockdown plasmid and several clones were picked up. Half million of cells were seeded in a well of a 24 well plate and incubated overnight, then stimulated with LPS (10 μg/ml) for certain time. Luciferase assay Biotium. NFκB luciferase activity is inversely dose-dependent on the LRBA levels in A549 cells with different levels of LRBA knockdown judged by the GFP levels of the cells stably transfected with the LRBA shRNA/GFP construct. (D) LRBA KD#3, LRBA KD#4 and LRBA KD#5 clones express different levels of GFP expression from low to high. The GFP expression levels can be an indicator of shRNA expression levels and are inversely related to the levels of LRBA. […]

B1: LRBA shRNA: shRNA plasmid against LRBA; targeted LRBA sequence SEQ ID No. 15 GGGATATTGTAGAAACTGTCTTT (nucleic acid)
sense: GGGATATTGTAGAAACTGTCTTTTTCAAGAGAAAAGACAGTTTCTACAATATCCCTTTTTT
antisense: CCCTATAACATCTTTGACAGAAAAAGTTCTCTTTTCTGTCAAAGATGTTATAGGGAAAAAA
TLR4 levels (Western blot) (A549 cells; 2 h and 4 h after LPS stimulation (1 μg/ml)): increases | TLR4 levels (Western blot) (A549 cells; 24 h after LPS): no difference | total NFκB levels (Western blot) (A549 cells; LPS 1 μg/ml, A549 pLAsiGFP cells): decreases | TNFα levels (Western blot) (A549 cells; LPS 1 μg/ml, A549 pLAsiGFP vs A549): increases | NFκB luciferase activity (NFκB): increases
